Results as given in publication PMC8580882.

Biological target: Cyclosorus parasiticus chalcone synthase 1 (CpCHS1) (Cyclosorus parasiticus)
Test: crystal structure; sitting-drop vapor diffusion at 20°C; 0.2 M sodium chloride, 0.1 M Tris-HCl pH 8.0, 20% w/v PEG 4000; apo form at 1.9 Å, complexes with naringenin and with naringenin + CoA at 2.4 Å; molecular replacement with 6DXB

Cyclosorus parasiticus chalcone synthase 1 (CpCHS1) (enzyme)
stoichiometry N: 2
